This note sets out measurements from the domain aggregation screens of Martell et al. (2025).

Bounds are passed on as bounds.

The series in a line: soluble fraction after stress (log2 fold change); higher = more stays soluble; pooled small domains, quantitative proteomics. To be noted: stress: pH 4. An outline of the steps: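 Custom libraries of small protein domains were pooled and exposed to pH 4. High-throughput quantitative proteomics then measured the log2 fold change in the amount of each domain still soluble, with higher values meaning more stayed soluble. This soluble-fraction fold change stands for aggregation propensity.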
With “HMNKRYKVQVTTDNLKIRKGAGTSYPVVGHITDKGTYTIVETSGKWGKLLSGAGWIYLSYTKK”, the “soluble fraction (log2)” value was 0.22.
Turning to “HMNKTEIISILEKIVLPTQIRNINIFGSEVIIDLNIDNPSLHAKKKLEKSIINSFDKNHKIIINFNVE”, the “soluble fraction (log2)” value was -0.514.
“HMNKTLTEQIYDELKSAIIELELKPGEFVTEEYLAEQLGVSRTPLKSAISKLIFEGLMAYEVGKGTYIS”: the “soluble fraction (log2)” value was -1.32.
Regarding “HMNKVQTFIIEKHIKEVFEHTNRTYYRSGQYYFQTRDEFSMALKRFLKDREPNKKNWIDSIINRA”, the “soluble fraction (log2)” value amounted to 0.195.
For the sequence “HMNKYQFESKIHIYRATKRMTQQELADLVGVSRQTIMQLERNRYNPSMMLAYGIAKVFDVTIEDLFDFSEV”, the “soluble fraction (log2)” value came out at 0.0457.
Consider “HMNKYYQQLLQADPTGFIDPFKDLGTYDSRLNTFKEPVSELLNPFSGRPYSKIWQKRIETMREIFISYIKS”, for which the “soluble fraction (log2)” value is -0.213.
In the case of “HMNLDVEQIKKEALNQLIEIGNENDGIVTIKDFKKIDDISSLDEDDIEDIRNLLIENNIEIFE”, the “soluble fraction (log2)” value is -0.641.
As for “HMNLEQTIVLGKRLFNNALDTLGKKQRSIKNKQINKLLELLNFKNMNELYQSIGVGDKNPLLMAQMML”, the “soluble fraction (log2)” value was -0.045.
Consider “HMNLESNQYVIDISDSQVINKDEFETILNQNKTKDIVIKSNNNVTFTFEKGSMIGAEGKDNYDFSSQVNY”, for which the “soluble fraction (log2)” value was -0.588.
“HMNLFNEIEKQYQALQDRSSASLVDLRHLLLDIEELVNSPDYQALAPDQRSTLQAARKELMRRIQKQEN”: the “soluble fraction (log2)” value was -0.193.
With “HMNLGDSLFHARRKQGLSQEAVAEQLGVSRQTVSKWEANETLPDIRQSKLMAKLYHTSLDELI”, the “soluble fraction (log2)” value was found to be 0.138.
On to “HMNLLDYTTLYVTSDGKSVSFGIAGKEIPVSYIAQEAPGTVVIDDTIRIPRKYDMEYILKRFNES”, for which the “soluble fraction (log2)” value was -1.33.
In the case of “HMNLLGDNIRKLRLEKGLGLNEVARLANITGGYLSSIENNKRTNVGTEILESIAKAIGVSVSDFYL”, the “soluble fraction (log2)” value was -0.0496.
Turning to “HMNLLGERIREIRMEMGLTAKELAQRASVTPGYISQIEHDQIKPSMNVMMRIAEVLNVPMAALLM”, the “soluble fraction (log2)” value is at least 0.43.
Take “HMNLLPAGTYKLKDLVTAEDEEIGAKKGDVVIAHEDTPPSDRVLGVDIFPVIHKNTSKKIYVSLEDI”: the “soluble fraction (log2)” value stood at 0.101.
Take “HMNLMQIHVARPPNQLGVFSQEEVAAGLQSGRFLPTDQAWRDGMSAWTPLSQWAEFSSVVAAV”: the “soluble fraction (log2)” value is -0.307.
For the sequence “HMNLNLDITTYKLEELENLLKLKPNYKQEQIFEAKTKMEKFILKSNLNESKREELYIFLDNIYNKLTNNLL”, the “soluble fraction (log2)” value is -1.34.
Turning to “HMNLPISDREKELLTLLSKGLLYKEIASKLDITIGTVKQHIHNIYHKLHVSNKTEALNLFNK”, the “soluble fraction (log2)” value turned out to be 0.172.
“HMNLRLKEVLDEKNMSLVTLSEKTGIEKGNLSAISNNKKNPTVETLSKIAKALQISLAELFESPP”: the “soluble fraction (log2)” value was 0.169.
For “HMNLSDIETWLRELSLEKYALAFSEAEIDFETLPELTEDDLKEVGLPVGPRRKVWGAIQLLRTTD”, the “soluble fraction (log2)” value was -1.37.
With “HMNLSNVVIRKVQEMILSGELQEGDKLPPEREMTQRLGIGRPALREGLKSLEMLGLVERRHGLGNFIINKV”, the “soluble fraction (log2)” value is -0.475.
In the case of “HMNLSPADFSSVRNALGLSLSTVAKESGINRNYLSNFEKKKHFLEETAKVKLRDYYMSIDPDAFAAAL”, the “soluble fraction (log2)” value was -0.291.
Turning to “HMNLVGGKINSLMTTKNVTIQDLSERSGLTVSQIELLLSGDKVPSLAVLIKIARGLGVRVGTFL”, the “soluble fraction (log2)” value was -0.156.
“HMNLVRQHTDYAFRLLVALSQAPGKPISTRTLASAADVPYQFASKIMQKLHEEGLVESVMGPFGGFRLVQ”: the “soluble fraction (log2)” value was -0.419.
With “HMNLWIDNTQVINDWTEGASERSGSIYLTAGVKPIKMQYFDSVLNAKAILRWQGPGINKSVVPSSALTPG”, the “soluble fraction (log2)” value was -0.209.
With “HMNMEDIADKIGRLYDNLPDDLKLMIKYRDIDDMTYDEIARKANLPIGTVRSRLHRARDILLREI” the figure was -0.108; with “HMNMFGIQRRNHLLSLLQEKKSITVQEAAVIFEVAEETIRRDFRTMEGQGLIVRTHGGALLADD”, -1.14.
With “HMNMMIIHVNGEKYSFQEPITISELILKLELDSRKIAIEYNLEILPRSLFEITSIKNGDKIEIVHFI” the figure was -0.892.
On to “HMNMPYGTVKWFNDAKGFGFIAPEDGSADVFVHFSAINSKGFRSLQEGQRVSYEVTTGPKGAQAAGVTPVT”, for which the “soluble fraction (log2)” value is -0.91.
Next, “HMNMYTVTGRLVDQDGVPQANALVTIDSSSQQTRTSPQGFYLIKVFGTEPSTIKFLVDGYDPQIVNFTP”: -0.278; “HMNNDIDRVFAELTVLSQKKGYLVFDDIEKGTEDLSVNEVDWLTNRLLTSGVEIFDDVPDTIK”: -1.81; “HMNNDSQYLATLQRYYAEHRVLPSYARMLPLLGFASKAAVKKVLERLEVVGMLERTEDGDWAPSERFFER”: 0.0419.
In the case of “HMNNGYSINEIAKLMKMTLKVVRRYVASGELKTTKTNNTYSISEEAFNEFKKYIEEGGDAKHAQEVADTFK”, the “soluble fraction (log2)” value was -0.554.
Regarding “HMNNIGENIKKYRTKQGLSQEDFAKKSGVKYTTLTKIESGVIKKPSVLVMAKIAKALGVNIEELI”, the “soluble fraction (log2)” value was at least 0.43.
“HMNNIINEAQIKQWVEEFYLSVSPRPTRATMIALVHKKIKEETKDGEEGQTVSETLINNFYTALEKEHKRK”: the “soluble fraction (log2)” value was 0.22.
For the sequence “HMNNIPFIITDERLNVIQSHLVPREVLDHPDRLRRQIDRFTEENQPKTVNYWWGPEHRHIIFYGKSK”, the “soluble fraction (log2)” value was 0.281.
On to “HMNNIYFSPVVEENNKGLRLDKFLAASFPEFSRSQLQRLILEGNVSNDDVVIADNSQKVRVGDSFQVIVPE”, for which the “soluble fraction (log2)” value is -0.0304.
In the case of “HMNNKSDLLFNHLRQRIATMENGTIFPSVRQLMTEYNVSQSTVSTAIRSLKELGLLEALSRQGMVVRKE”, the “soluble fraction (log2)” value is 0.104.
Regarding “HMNNLGSKIKELRIAENLTQEKLAEELNVSFQSISRWENGISTPDISLIPAIARFFGVSTDYLFGLQD”, the “soluble fraction (log2)” value was -1.03.
Turning to “HMNNLPDFIKQLRKENNLTQEYVASEIGVSRPTYEQIEKGKRELTISEAEKLAKIFNIPLENFLQGKKGV”, the “soluble fraction (log2)” value was -0.0996.
Take “HMNNPLPDLLKYFRKKKHLTQEQVAKQLSVSRASYASYETGRIIPGMQHIMELSRILEHDFLFAYTLAVQ”: the “soluble fraction (log2)” value is -0.446.
Turning to “HMNNPNFAIQKYVTGSDIKRVRKTLRLTQKKFAELVGVSKATMERWETKEDKITGPVVLLLKILEDHPEY”, the “soluble fraction (log2)” value is -0.0904.
Turning to “HMNNQKATAVKVASGIVNLRSGPATSYETLDTVATGETLSVLAEKDGWFQVSRAGRTGWVAGWVVDVIRE”, the “soluble fraction (log2)” value was -0.586.
Turning to “HMNNSSIGERLKYQRKIKGYSQEELADRTNVTVRTIQRIEKEEVSPHLNTIKLLAIALDIEVDELVAL”, the “soluble fraction (log2)” value was -1.18.
Regarding “HMNNSVAYSTFLNDIRTNTLKDVDMTSNSETINVTKKDGTKYQTVMPMYDRDLLADLSKTDATVTGQP”, the “soluble fraction (log2)” value is -0.155.
On to “HMNNTIKFSVDIKNSGKRLDIFLSENVTQYTRSYLKRLIENSHVKLNNKILNSPSTKVKFQDQIIINNIE”, for which the “soluble fraction (log2)” value came out at 0.0707.
Turning to “HMNNTIKFSVDTTNSGKRLDIFLAENIKQFTRSYLKKIISNNQVKLNNLVANSPSIKVKHSDLILINILE”, the “soluble fraction (log2)” value is -0.62.
Consider “HMNNTVLSSVKSINMFLDANGGDAGQAFRIYNNTNPDSNPTESTYIFKVAEDGNTFVKGYLNLNGTTL”, for which the “soluble fraction (log2)” value is 0.378.
For the sequence “HMNNVRIEHIDTIGTVRLHKKRGVKRVSLRIHQSGEIRVTQPLYLPFSAGVLFAKSHTEWIMKQKQK”, the “soluble fraction (log2)” value came to 0.0224.
In the case of “HMNNWRRSLEREVTASLARGDRDIFDGLNRSFEAALITKALEHTGGRRIEAATLLGIGRNTLTRKIQDLGL”, the “soluble fraction (log2)” value is -0.79.
Regarding “HMNNYEGIVKSVSNSNVYIQVAGRTIGYTISPHTIIMVNGKNVPASELMPGQHVSYTNKGSKLSYININS”, the “soluble fraction (log2)” value came to 0.205.
Take “HMNNYFPAYKGSATSIAPALKQMGVNNSYAYRSKIAAVNNITGYRGTPAQNTQMLNLLKQGRLIK”: the “soluble fraction (log2)” value was -0.156.
With “HMNNYNDSVQKIINYIADNLNENLSVRKLADKMPMSVSHFNRVFQKYTGDSPYAYVMAMRIKKAKYL” the figure was -0.565; with “HMNPAIYIRKNILNLTQEKLSEYLDVTQPTIHRWEESGVIPAKHQRQIREFASEKGIYWNDSWFFSIPDE”, -1.2; with “HMNPDMIAGVLKVPAAAGRLRSALFELGVVDDESYDDDGASRLTVTASQSDLERIVAQAGLVFEDVLVERR”, -1.3.
Consider “HMNPEAFIQTLKQILSTYEKNDPIYLQEIKADLVKKFRIEIPINALETYLKENGYSNIYLKR”, for which the “soluble fraction (log2)” value is -0.516.
Regarding “HMNPEDLSGVRKAAILLLTMDDEVTKDVMKGLDEEEIEAIGKEITNLKLIPDHVVHRVQEEFMTKVSK”, the “soluble fraction (log2)” value was -0.375.
Next, “HMNPESRRSELIDAATKLFFSRGYTATSIRDILDAVDDRTASPSVFYYYFESKEAIYQAVLQRYTD”: -1.34; “HMNPETPAQQAVRKRLIVSVQFYRRLKDTPLKAVWQVAARDTLVNGYNLFLKRNIHAFNDRTLSTPSALS”: 0.089; “HMNPFPDNTAEVLSQFKNIIVPELNTGQLSKLLRARYLVDTVGINKVEGLPFTAQELEEKIESLINSF”: -0.705.
Next, “HMNPGQIIRKLRQDQGMTLAVLAKYANLDPGNLSRIERDDLNISFNLLEKLSLILNVSPIVFFH”: -0.0716; “HMNPLSELSFEERRELFLEAAVRLFEEKGYKNTSVEDIAGELGFTKKVFYYYWKNKREIVQEIHDRGMA”: -0.986; “HMNPNFIEVSHGRLRVNVPLSAYEGTTYHIKPEEAEKLKRTLASRYPWLTPNALKVFIEEAEQAMRERIQ”: 0.217.
Regarding “HMNPSKEFNMSDLLKAKMVGDVSAAKRREKAGALLHIGYGNAKTFLKKLNHFSISREEWDKVIAAMEEF”, the “soluble fraction (log2)” value is 0.0295.
Next, “HMNPSVSSDERILLQKALGILSAEQKQIVMLHAVAGIKHREIAKLLDMPIATVLSKYSRAVNKLRHAMEA”: -0.298; “HMNPTTDFFKLEGIDATRILVFDQVGRQVAQFSQPAQQMDIQALPAGVYALRIENADGQVYSARIVK”: -0.773.
Take “HMNPVVATTIILDGEIIKDNLAEANLSEEWLLEELKRQNFNDVKEVFYAEWLDGKQLFAYPYTK”: the “soluble fraction (log2)” value is -0.789.
“HMNQDIIEIGNNIQKIRKKNGISQSVLAEKIDVAGNSIYRMEGATTVMGVDKLINIADALNTSPMDILPAR”: the “soluble fraction (log2)” value was found to be 0.0428.
